Biological target: Human plasminogen (human)
Assay: ELISA; plasminogen immobilised on plate wells (1 ug in 100 uL PBS), blocked with 1% gelatin; AdcA 0-1 uM in PBS, 1.5 h at 37 C; bound AdcA detected with rabbit anti-AdcA serum; apparent KD from the fit to total binding saturation (GraphPad Prism); MntC run as control; EACA (0.1-10 mM) or NaCl (25-800 mM) added in further panels

“Staphylococcus aureus zinc transport protein AdcA, recombinant full-length protein (natural protein)” was tested, and the Kd was 45.1 nM.

Source: article PMC8878332
